From PMC12297659, “In situ structure of the mouse sperm central apparatus reveals mechanistic insights into asthenozoospermia” (Cell Research, 2025)
One block for each molecule: values may come before it.

How the values were obtained:
Experiment in all cases: cryo-EM structure; in situ cryo-electron tomography with subtomogram averaging of about 200 nm cryo-FIB lamellae of wild-type mouse sperm; local maps of 5.5 Å to 18 Å; AlphaFold2 models fitted into the density
[1] = target: GMCL1 (BTBD16) (mouse (endogenous in sperm)) (UniProt Q920G9)
[2] = target: SPATA17 (mouse (endogenous in sperm)) (UniProt Q9D552)
Sequence of SPATA17 (mouse (endogenous in sperm)) (Q9D552 whole entry): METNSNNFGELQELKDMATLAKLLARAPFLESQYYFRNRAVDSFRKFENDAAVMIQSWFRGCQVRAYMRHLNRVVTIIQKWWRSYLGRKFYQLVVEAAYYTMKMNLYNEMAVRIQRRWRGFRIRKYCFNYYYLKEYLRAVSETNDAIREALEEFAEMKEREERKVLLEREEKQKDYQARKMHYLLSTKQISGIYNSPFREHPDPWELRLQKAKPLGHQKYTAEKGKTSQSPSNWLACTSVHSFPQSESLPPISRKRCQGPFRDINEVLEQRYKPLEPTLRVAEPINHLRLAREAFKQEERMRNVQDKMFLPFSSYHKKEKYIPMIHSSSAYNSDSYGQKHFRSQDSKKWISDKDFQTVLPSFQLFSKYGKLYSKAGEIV

[3] = target: the molecule itself

B1: SPAG16 (natural protein, mouse (endogenous in sperm), UniProt Q8K450 1-639, looked up)
chain: MAAPSGVPPLRVLEELGIGLSPTGEVTEAVTSEGAYYLEQVTITETSEDECEYEEIPDDNFSIPEGEEDLEKAIHIIGEQARDIHILEQQTILPARNVMQEAIEDFLCNFLIKMGMTRTLDCFQAEWYELIQKKGSDFKGLGNVPDVYSQVMLLETENKNLKKELKHFKQAAEKAKEDLLRTQKERDFHRMHHKRIVQEKNKLIADLKGLKLHYASYEPTIRVLHEKHHALLKEKMLTSLERDRAVGKISGLQATLKNIDMGHIQVPVIKGSYESASITRESGDRAGHSCEKENSSEGPTQKSLREAREEVGYKSKLKNEKKDSEFPVDMQPDPNVTSCTENVSAAKFDYKLNNIFRLHELPVSCIVMHPCRDYLISCSEDRLWKMVGLPQGNVLLTGSGHTDWLSGCCFHPSGSKLATSSGDSTIKLWDLNKGECTLTLEGHNHAVWSCTWHSCGDFVASASLDMTSKIWDVNSERCRYTLYGHTDSVNSIEFFPFSNILLTASADKTLSVWDARTGKCEQSLYGHMHSVNDATFTPRGHIIASCDARGVTKLWDFRKLIPIVSIDVGPSSGNEVNFDQSGRVLAQASANGIIHLLDLKSGQIHKLVGHESEVHSVVFSHLGENLYSGGSDGTIRLWI
notes: SPAG16, mouse, with a coiled-coil domain and a C-terminal β-propeller domain; Adjacent copies dimerise through the coiled-coil domain; also called PF20 homolog; source: endogenous, in intact mouse sperm (cryo-FIB lamellae)
- stoichiometry N [3]: 2

B2: CFAP70 (natural protein, mouse (endogenous in sperm), UniProt D3YVL2 1-1141, looked up)
chain: MDQTSSTTKIVHITVTNGYDLKGFKGDTPVTFVRAEFNQTVLGDSSKVTVSPEGTAKYNFTSNIDLSPDGGGALDDLAHKPLFLTVTEVLPKEKKQKDEKTLILGQAVVDLLPLLEGEESFETTVPLHPVPGSPLETPLPGSKQCSLDVKVFVAEPLLTPAQVSASNLLKVTLEAAYSVPESFIPVGPQQNYMVGLQVPSVGEKDYTMIFKNGNLKLGGEKEPVPRPKKWPIANILAPGASNIPDEFIVGGPYEEEEGELNHPEDREFRNQAECTKKRIVWDLESRCFLHPFAVASFQKRIADCRLWPVEITRVPLVVMPKAKPGKLEKIDDENQLSFHGVAYINMVPLLYPGVKKIRGAFHVYPYLDGTVFEKTKCLFSLFRDTGHHLVQNNKAGGLNSPLSKPLSKNLKEEKPGKDKDTEGRPRLGELQAPSIKSQSSDTPLESEAPLSHNLEGQQYIEAGTYIVLEIQLEKALVPKRMPEELARRVKEMIPPRPPLTRRTGGAQKAVSDYHTQIKSISRAILNEYYRMFGKQGPKLESDIDNETMEERKCQLNYELNCSGKYFAFKEQLKHAVVKIVREKYLKTTAFESQEELQTFISELYVFLVDQMHVALNQAVPDDVPSSTSTIQTSSEQLRLFAFEAEVNEKFEIAAMYYEERLVREPQNLENWLDYGAFCLLTEDNIKAQECFRKALSLNESHVDSLLLCGVLAILLENYEQAEIFFEDATCLEPTNVIAWTLLGLFYEIQNNDIRMEMAFHEAFKQLQARTLQTKLKSTVTIENMEEGVKVEPSFGPWGVVQESTTAIKTEGLSGMRPQSSHQLSPHTNMELHPQPQGPNTALSSLDEFLEESPKAQSESQEPMATGQPLEPSLVQRSSNALLKELTSKKDISKCQDSSAFSPPTQHVIAQPPVTIFMETIRFLMKVNAVQFVHRVLAHELLCPQGGPSCEYYLVLAQTHLLKKDFAKTEEYLQQAAQMDYLNPNVWGVKGHLYFLSGNHAEAKECYERTISFVVDASEMHFIFLRLGHIYLEEKEYENAKRTYMHACKRSPSCLTWLGLGIACYRLEELTEAEDALSEANALNNCNAEVWAYLALVCLKVGRQLEAEQAYKYTIKLKLKDQALLEEIHTVQEMVGFGNPSF
notes: CFAP70, mouse; The CFAP70 dimer was predicted with AlphaFold2 Multimer before fitting; source: endogenous, in intact mouse sperm (cryo-FIB lamellae)
- stoichiometry N [3]: 2

Other lines, results leading:

- stoichiometry N [1]: 2
Molecule: GMCL1 (BTBD16) (from UniProt Q920G9 1-524) (natural protein)

- stoichiometry N [2]: 3
Molecule: calmodulin (CaM) (from UniProt P0DP26 1-149) (natural protein)
